How the values were obtained:
[1] = target: muc-1 on muc-1 positive human cancer cells (DU145; T47D) (human) (UniProt P15941); test: flow cytometry, dye labelled IgG on muc-1 positive T47D (printed T74D) cells
[2] = target: muc-1 on muc-1 positive human cancer cells (DU145; T47D) (human) (UniProt P15941); test: flow cytometry, dye labelled IgG on DU145 cells, higher dose range
[3] = target: muc-1 on muc-1 positive human cancer cells (DU145; T47D) (human) (UniProt P15941); test: flow cytometry, dye labelled IgG 0.2 to 200 nM on DU145 cells

UniProt P15941, sequence (P15941 24-1255, stated change not applied): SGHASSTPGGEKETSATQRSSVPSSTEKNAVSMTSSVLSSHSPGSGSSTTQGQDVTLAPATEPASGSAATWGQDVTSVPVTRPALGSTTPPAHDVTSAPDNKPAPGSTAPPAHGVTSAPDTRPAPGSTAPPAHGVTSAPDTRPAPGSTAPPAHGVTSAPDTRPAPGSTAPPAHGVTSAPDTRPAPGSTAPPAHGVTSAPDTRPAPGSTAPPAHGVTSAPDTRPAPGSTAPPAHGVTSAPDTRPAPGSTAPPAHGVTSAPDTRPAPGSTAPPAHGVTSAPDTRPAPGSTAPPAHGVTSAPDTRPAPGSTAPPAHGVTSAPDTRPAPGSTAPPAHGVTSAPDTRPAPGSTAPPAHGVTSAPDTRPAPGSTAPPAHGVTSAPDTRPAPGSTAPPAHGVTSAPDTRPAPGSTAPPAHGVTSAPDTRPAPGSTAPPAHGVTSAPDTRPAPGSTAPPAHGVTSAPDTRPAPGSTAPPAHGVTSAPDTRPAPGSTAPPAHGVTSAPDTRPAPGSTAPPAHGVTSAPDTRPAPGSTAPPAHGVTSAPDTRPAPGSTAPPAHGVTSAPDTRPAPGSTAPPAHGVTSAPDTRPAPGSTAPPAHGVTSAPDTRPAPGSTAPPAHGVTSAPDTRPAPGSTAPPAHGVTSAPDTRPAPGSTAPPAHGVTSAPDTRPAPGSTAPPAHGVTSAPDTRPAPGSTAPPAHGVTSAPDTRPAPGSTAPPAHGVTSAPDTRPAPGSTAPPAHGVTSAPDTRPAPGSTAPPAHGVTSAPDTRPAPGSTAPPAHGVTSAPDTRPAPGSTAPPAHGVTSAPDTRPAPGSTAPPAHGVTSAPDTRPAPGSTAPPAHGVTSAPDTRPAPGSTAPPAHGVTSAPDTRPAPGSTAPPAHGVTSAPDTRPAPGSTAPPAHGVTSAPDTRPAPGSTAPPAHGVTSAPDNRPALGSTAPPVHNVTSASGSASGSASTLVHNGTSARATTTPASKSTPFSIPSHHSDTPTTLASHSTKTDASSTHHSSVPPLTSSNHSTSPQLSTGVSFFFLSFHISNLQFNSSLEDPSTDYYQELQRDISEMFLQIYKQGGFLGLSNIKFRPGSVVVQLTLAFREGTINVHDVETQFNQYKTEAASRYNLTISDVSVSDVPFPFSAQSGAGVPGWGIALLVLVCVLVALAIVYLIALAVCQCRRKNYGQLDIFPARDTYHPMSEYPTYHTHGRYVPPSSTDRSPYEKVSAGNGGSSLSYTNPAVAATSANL

| Substance | IgG concentration at which binding plateaus [1] | further results |
| --- | --- | --- |
| hCTM01 S171C mutant IgG reduced with 5 mM 2-ME and labelled with AlexaFluor488-C5-maleimide (approximately 4 dyes per IgG; 3.9 dyes per IgG in FIG. 4) (antibody) | > 100 nM |  |
| wild type CTM01 IgG labelled via lysine modification with AlexaFluor488-NHS ester (2 dyes per IgG) (antibody) |  | percent lower binding than kappa cys171-dye labelled S171C mutant IgG [2]: 8% |
| wild type CTM01 IgG labelled with AlexaFluor 488-C5-maleimide under identical conditions (0.7 dyes per IgG) (antibody) |  | fold lower degree of binding than the S171C mutant labelled via kappa cys171 [3]: 6 fold |
| wild type hCTM01 IgG reduced with 20 mM 2-ME and labelled with AlexaFluor488-C5-maleimide (approximately 4 dyes per IgG; 3.6 dyes per IgG in FIG. 4) (antibody) | 20 nM |  |
